Assay results published in US20150190466.

Target: T1, N-terminus tagged ILDR2
T1 sequence (Q71H61 whole entry, species assumed, looked up): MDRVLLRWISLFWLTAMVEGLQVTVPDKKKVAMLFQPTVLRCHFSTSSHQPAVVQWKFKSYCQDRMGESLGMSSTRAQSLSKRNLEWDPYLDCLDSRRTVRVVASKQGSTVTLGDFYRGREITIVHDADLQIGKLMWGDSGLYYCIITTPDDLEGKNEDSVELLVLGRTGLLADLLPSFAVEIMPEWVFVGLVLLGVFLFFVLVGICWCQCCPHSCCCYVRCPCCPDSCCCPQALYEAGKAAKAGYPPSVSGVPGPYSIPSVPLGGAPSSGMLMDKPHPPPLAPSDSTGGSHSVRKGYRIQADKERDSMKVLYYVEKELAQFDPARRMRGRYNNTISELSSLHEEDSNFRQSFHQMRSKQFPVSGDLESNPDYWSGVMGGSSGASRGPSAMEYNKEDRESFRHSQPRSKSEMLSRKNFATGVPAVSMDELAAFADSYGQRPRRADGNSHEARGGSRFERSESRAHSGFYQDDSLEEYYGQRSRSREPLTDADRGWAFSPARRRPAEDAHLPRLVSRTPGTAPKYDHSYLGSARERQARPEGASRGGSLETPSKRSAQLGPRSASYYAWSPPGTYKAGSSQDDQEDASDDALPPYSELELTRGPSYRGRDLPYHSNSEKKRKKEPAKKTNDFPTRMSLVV

B1: V5-tagged PERK (protein)
chain: VAPARSLLAPASETVFGLGAAAAPTSAARVPAVATAEVTVEDAEALPAAAGEPESRATEPDDDVELRPRGRSLVIISTLDGRIAALDAENDGKKQWDLDVGSGSLVSSSLSKPEVFGNKMIIPSLDGDLFQWDRDRESMEAVPFTVESLLESSYKFGDDVVLVGGKSLITYGLSAYSGKLRYICSALGCRRWDSDEMEEEEDILLLQRTQKTVRAVGPRSGSEKWNFSVGHFELRYIPDMETRAGFIESTFKPGGNKEDSKIISDVEEQEATMLDTVIKVSVADWKVMAFSRKGGRLEWEYQFCTPIASAWLVRDGKVIPISLFDDTSYTASEEALGDEEDIVEAARGATENSVYLGMYRGQLYLQSSVRVSEKFPTSPKALESVNGENAIIPLPTIKWKPLIHSPSRTPVLVGSDEFDKCLSNDKYSHEEYSNGALSILQYPYDNGYYLPYYKRERNKRSTQITVRFLDSPHYSKNIRKKDPILLLHWWKEIFGTILLCIVATTFIVRRLFHPQPHRQRKESETQCQTESKYDSVSADVSDNSWNDMKYSGYVSRYLTDFEPIQCMGRGGFGVVFEAKNKVDDCNYAIKRIRLPNRELAREKVMREVKALAKLEHPGIVRYFNAWLETPPEKWQEEMDEIWLKDESTDWPLSSPSPMDAPSVKIRRMDPFSTKEQIEVIAPSPERSRSFSVGISCGQTSSSESQFSPLEFSGTDCGDNSDSADAAYNLQDSCLTDCEDVEDGTVDGNDEGHSFELCPSEASPYTRSREGTSSSIVFEDSGCGNASSKEEPRGNRLHDGNHYVNKLTDLKCSSSRSSSEATTLSTSPTRPTTLSLDFTKNTVGQLQPSSPKVYLYIQMQLCRKENLKDWMNRRCSLEDREHGVCLHIFLQIAEAVEFLHSKGLMHRDLKPSNIFFTMDDVVKVGDFGLVTAMDQDEEEQTVLTPMPAYATHTGQVGTKLYMSPEQIHGNNYSHKVDIFSLGLILFELLYPFSTQMERVRILTDVRNLKFPLLFTQKYPQEHMMVQDMLSPSPTERPEATDIIENAIFENLEFPGKTVLRQRSRSMSSSGTKHSRQPSCSYSPLPGN
  cleavage of ILDR2 (western blot of ILDR2 fragments after co-transfection): N-terminus-tagged ILDR2 was also decreased by PERK, but cleaved ILDR2 was not detected
